Assay results taken from PMC10720262 (2023).
Numbering of substitutions follows the chain as printed.

B1: CL-510499 (antibody, V domains shown)
VH: QVQLVESGGGLVQPGRSLTLSCAASGFTFSNYGMHWVRQTPGKGLEWVALIRYDGSYKFYADSVKGRFTISRDNSKNTLYLQMNSLRAEDTAIYFCARDGDYSNSAGDFDYWGQGTLVTVSS
VL: EIVLTQSPGTLSLSPGERATLSCRASQSVSSTNLAWYQQKPGQAPRLLIYGVSSRATGIPDRFSGSGSGTDFTLTINRLEPEDFAVYYCQQHGRSFTFGPGTKVEIK
modifications: peptides N-terminally acetylated and C-terminally amidated
B2: CL-513808 (antibody, V domains shown)
VH: QVQLVESGGGVVQPGRSLRLSCAASGFTFSNYGMHWVRQAPGKGLEWVAIIWYDGSNKFYADSVKGRFTISRDNSKNTLYLQMNSLRAEDTAVYYCARDDRGHSYGPYFDFWGQGTLVTVSS
VL: EIVMTQSPATLSVSPGERATLSCRASQSVSSNLAWYQQKPGQAPRLLIYGASIRATGIPARFSGSGSGTEFTLTISILQSEDFAVYYCQQCNNWPWTFGQGTKVEIK
modifications: peptides N-terminally acetylated and C-terminally amidated
B3: CL-532061 (antibody, V domains shown)
VH: QVQLVESGGGVVQPGRSLRLSCVASRFTFSNYGMHWVRQTPGKGLEWVAIIWYDGSNKFYGDSVKGRFTISRDNSRNTLYLQMNNLRAEDTAVYYCARAYDDFVDHDKYGMDVWGQGTTVTVSS
VL: DIQMTQSPSTLSASVGDRVTISCRASQSISIWLAWYQQKSGKAPKLLIYKASRLESGVPSRFSGSGSGTEFTLTISSLQPDDFATYYCQQYNSYWTFGQGTKVEIK
modifications: peptides N-terminally acetylated and C-terminally amidated
B4: CL-510640 (antibody, V domains shown)
VH: QVQLVESGGGVVQPGRSLRLSCAASGFTFSNYGMHWVRQAPVKGLEWVAIIWYDGSNKFYADSVRGRFIISRDNSKNTLYLQMNSLRAEDTAVYFCARAREGQNSDYYGSETSYTFDSWGLGTLVTVSS
VL: B3 VL with S22T, I31S, S40P, L46F, R53S, N92K
modifications: peptides N-terminally acetylated and C-terminally amidated
B5: CL-512761 (antibody, V domains shown)
VH: QVQLVESGGGVVQPGTSLRLSCAASGFTFSNYGMHWVRQAPGKGLEWVSITWYDESNKFYADSVKGRFTISRDNSKNTLYLQMNSLRAEDTAVYYCARAYDTLTGYRAQKYGMDVWGQGTTVTVSS
VL: B3 VL with S22T, S28R, I31T, S40P, Y49N, K50E
modifications: peptides N-terminally acetylated and C-terminally amidated
B6: CL-510514 (antibody, V domains shown)
VH: QVQLVESGGGVVQPGRSLRLSCTTSGFTFSNFGMHWVRQAPGKGLEWVALIWYDGSNKYYADSVKGRFTISRDNSKNTLYLQMNGLRAEDTAVYYCARDGGYYYGSGGAFDIWGQGTMVTVSS
VL: not shown
modifications: peptides N-terminally acetylated and C-terminally amidated
B7: CL-437862 (antibody, V domains shown)
VH: QVQLVESGGGVVQPGRSLRLSCAASGFTFSNSGMHWVRQVPGKGLEWVAIIWYDGGNKYYADSVKGRFTISRDNSKNTLYLQMNSLRAEDTAVYYCARAYYDILTSYDKDCCYGMDVWGQGTTVTVSS
VL: not shown
modifications: peptides N-terminally acetylated and C-terminally amidated
B8: CL-460506 (antibody, V domains shown)
VH: QVQLVESGGGVVQPGRSLRLSCAASGFTFSNYGMHWVRQAPGKGLEWMAIIWYDGSNKYYADSVKGRFTISRDNSMNTLYLQMNSLRPEDTALYYCARAFYYGSGTLDYWGQGTLVTVSS
VL: EIVLTQSPATLSVSPGERATLSCRASQSVSSHLAWYQQKFGQAPRLLIYGASNRATGIPARFSGSGSGTEFTLTISILQSEDFAVYYCQQYNNWFTFGPGTKIDIK
modifications: peptides N-terminally acetylated and C-terminally amidated
B9: CL-510596 (antibody, V domains shown)
VH: QVQLEESGGGVVQPGRSLRLSCTATGFTFSNYGMHWVRQAPGKGLEWVAVIWYDGSNKYYVDSVKGRFTISRDNSKNTLYLQMNSLRAEDTAVYYCARDGGYYGSGSYWWFDSWGQGTLVTVSS
VL: not shown
modifications: peptides N-terminally acetylated and C-terminally amidated
B10: CL-510469 (antibody, V domains shown)
VH: QVQLVESGGGVVQPGRSLRLSCAASGFTFSSYGMHWVRQAPGKGLEWVAVIWYDGSNQFYTDSVKGRFTISRDNSKNTLYLHMNSLRVEDTAIYYCARDGDYSSSAGDFDYWGQGTLVTVSS
VL: not shown
modifications: peptides N-terminally acetylated and C-terminally amidated

biological target: PfCSP full length (Plasmodium falciparum (isolate NF54), UniProt P19597); assay: ELISA AUC
Sequence (P19597 20-375): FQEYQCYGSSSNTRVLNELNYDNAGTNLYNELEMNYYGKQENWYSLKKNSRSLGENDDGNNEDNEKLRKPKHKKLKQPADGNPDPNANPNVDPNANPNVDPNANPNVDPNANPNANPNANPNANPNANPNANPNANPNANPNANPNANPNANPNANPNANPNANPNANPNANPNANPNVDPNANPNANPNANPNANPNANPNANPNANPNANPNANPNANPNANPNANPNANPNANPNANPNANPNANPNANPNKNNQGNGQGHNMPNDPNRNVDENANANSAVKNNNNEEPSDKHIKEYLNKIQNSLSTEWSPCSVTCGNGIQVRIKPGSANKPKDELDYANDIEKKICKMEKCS

| Binder | binding score |
| --- | --- |
| B1 | 2.06 |
| B2 | 2.17 |
| B3 | 2.47 |
| B4 | 2.16 |
| B5 | 2.17 |
| B6 | 2.12 |
| B7 | 2.4 |
| B8 | 2.2 |
| B9 | 1.64 |
| B10 | 2.16 |
